Reference: the PETadex activity labels (doi:10.1074/jbc.m303867200)

Assays:
Conditions in all cases: pH 8; 37 °C
p-NP-C12 = substrate: p-NP-C12
p-NP-C2 = substrate: p-NP-C2
p-NP-C3 = substrate: p-NP-C3
p-NP-C4 = substrate: p-NP-C4
p-NP-C6 = substrate: p-NP-C6

B1: unnamed (protein)
chain: MNNIWWQTKGQGNVHLVLLHGWGLNAEVWRCIDEELSSHFTLHLVDLPGFGRSRGFGALSLADMAEAVLQQAPDKAIWLGWSLGGLVASQIALTHPERVQALVTVASSPCFSARDEWPGIKPDVLAGFQQQLSDDFQRTVERFLALQTMGTETARQDARALKKTVLALPMPEVDVLNGGLEILKTVDLRQPLQNVSMPFLRLYGYLDGLVPRKVVPMLDKLWPHSESYIFAKAAHAPFISHPAEFCHLLVALKQRV
Km (p-NP-C12): 600 µM
kcat (p-NP-C12): 1.5 s⁻¹
kcat/Km (p-NP-C12): 2500 M⁻¹ s⁻¹
Km (p-NP-C2): 290 µM
kcat (p-NP-C2): 18.5 s⁻¹
kcat/Km (p-NP-C2): 63800 M⁻¹ s⁻¹
Km (p-NP-C3): 350 µM
kcat (p-NP-C3): 13.1 s⁻¹
kcat/Km (p-NP-C3): 37400 M⁻¹ s⁻¹
Km (p-NP-C4): 330 µM
kcat (p-NP-C4): 6.1 s⁻¹
kcat/Km (p-NP-C4): 18500 M⁻¹ s⁻¹
Km (p-NP-C6): 250 µM
kcat (p-NP-C6): 4 s⁻¹
kcat/Km (p-NP-C6): 16000 M⁻¹ s⁻¹
